This note sets out measurements from WO2001094586A2 (dated 2001).

In assay [1] the target is soluble fusion protein of human gp39 (gp39-CD8) (human) (UniProt P29965). Put plainly: cell-based or functional assay.
Assay [2] concerns the target T1, human gp39 (CD40 ligand), cell-surface (human, UniProt P29965 1-261).
T1 construct: whole, on cells; also called CD154; mgp39
T1 sequence (looked up): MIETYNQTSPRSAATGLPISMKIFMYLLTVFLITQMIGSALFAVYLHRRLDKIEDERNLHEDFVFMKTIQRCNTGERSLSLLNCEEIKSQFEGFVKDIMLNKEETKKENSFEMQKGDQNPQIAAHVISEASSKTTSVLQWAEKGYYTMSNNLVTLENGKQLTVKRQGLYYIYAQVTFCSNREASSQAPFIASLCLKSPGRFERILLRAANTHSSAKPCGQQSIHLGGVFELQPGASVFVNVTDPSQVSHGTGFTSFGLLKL
Kind of assay: cell-based or functional assay.

Assay [3] has as its target T1, human gp39 (CD40 ligand), cell-surface. Kind of assay: Scatchard analysis, 125I-labelled antibody on gp39-CHO cells.

Changes are numbered by the printed parent chain.

Regarding “TRAP-1, commercial murine anti-CD40L antibody”, the IL-2 production with TRAP-1 (30 ng/mL) and a 4:1 molar excess of soluble CD8-CD40L fusion protein in assay [1] was found to be 1500 pg/mL. This molecule came in with an IL-2 production with immobilized anti-CD3 (10 ng/mL) in assay [2] of more than 4600 pg/mL.

B1: humanized 24-31 antibody, version 1 (#1 VL with #1 VH) (antibody, V domains shown)
VH: EVQLQESGPGLVKPSETLSLTCTVSGDSITNGFWIWIRKPPGNKLEYMGYISYSGSTYYNPSLKSRISISRDTSKNQFSLKLSSVTAADTGVYYCACRSYGRTPYYFDFWGQGTTLTVSS
VL: DIVMTQSPSFLSASVGDRVTITCKASQNVITAVAWYQQKPGKSPKLLIYSASNRYTGVPDRFSGSGSGTDFTLTISSLQPEDFADYFCQQYNSYPYTFGGGTKLEIK
notes: also called IDEC131
Regarding B1, in assay [3], binding was put at a Kd of 5.6 nM.

B2: murine antibody 24-31 (anti-human gp39 monoclonal antibody) (antibody, V domains shown)
VH: EVQLQESGPSLVKPSQTLSLTCSVTGDSITNGFWIWIRKFPGNKLEYMGYISYSGSTYYNPSLKSRISITRDTSQNQFYLQLNSVTTEDTGTYYCACRSYGRTPYYFDFWGQGTTLTVSS
VL: B1 VL with P8Q, S9K, L11M, A13T, T20S, K42Q, S77N, L78M, P80S, F83L
notes: also called murine 24-31; anti-gp39 24-31 mAb
With B2, binding in assay [3] was put at a Kd of 8.51 nM.

B3: humanized 24-31 antibody, version 2 (#2 VL with #1 VH) (antibody, V domains shown)
VH: B1 VH
VL: DIVMTQSPDSLAVSLGERATINCKASQNVITAVAWYQQKPGQSPKLLIYSASNRYTGVPDRFSGSGSGTDFTLTISSLQAEDVADYFCQQYNSYPYTFGGGTKLEIK
notes: Built in the N5KG1 vector (human kappa and gamma 1 constant regions); also called humanized 24-31 version 2; humanized Version 2
As for B3, binding in assay [3] was put at a Kd of 14 nM.
